The text below walks through data of paper PMC7192608.

Holding throughout (assay): EMSA
On the technique in general: In EMSA bound probe runs differently from free probe, usually more slowly.

One data set has as its target T1, Rap1 BRCT domain (Saccharomyces cerevisiae, UniProt P11938 1-358).
T1 sequence: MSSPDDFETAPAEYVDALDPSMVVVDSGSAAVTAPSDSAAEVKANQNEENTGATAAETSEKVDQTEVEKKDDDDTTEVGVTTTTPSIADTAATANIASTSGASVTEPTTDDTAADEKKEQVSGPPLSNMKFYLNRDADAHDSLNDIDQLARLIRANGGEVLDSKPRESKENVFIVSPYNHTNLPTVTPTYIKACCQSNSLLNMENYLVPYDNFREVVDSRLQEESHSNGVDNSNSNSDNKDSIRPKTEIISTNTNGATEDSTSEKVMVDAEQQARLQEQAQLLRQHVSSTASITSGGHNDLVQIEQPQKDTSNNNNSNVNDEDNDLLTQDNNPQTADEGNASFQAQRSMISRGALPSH

The target in data set [1] is T2, Rap1 RCT (C-terminal domain) (Saccharomyces cerevisiae, UniProt P11938 600-827).
T2 sequence: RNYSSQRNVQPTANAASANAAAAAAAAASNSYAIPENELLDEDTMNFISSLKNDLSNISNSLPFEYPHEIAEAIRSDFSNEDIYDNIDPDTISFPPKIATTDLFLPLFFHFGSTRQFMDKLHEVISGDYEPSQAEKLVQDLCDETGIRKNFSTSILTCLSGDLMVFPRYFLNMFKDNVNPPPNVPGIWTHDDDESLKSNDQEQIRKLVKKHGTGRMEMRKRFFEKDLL

A further data set has as its target T3, Rap1-DBD (Saccharomyces cerevisiae, UniProt P11938 360-598).
T3 sequence: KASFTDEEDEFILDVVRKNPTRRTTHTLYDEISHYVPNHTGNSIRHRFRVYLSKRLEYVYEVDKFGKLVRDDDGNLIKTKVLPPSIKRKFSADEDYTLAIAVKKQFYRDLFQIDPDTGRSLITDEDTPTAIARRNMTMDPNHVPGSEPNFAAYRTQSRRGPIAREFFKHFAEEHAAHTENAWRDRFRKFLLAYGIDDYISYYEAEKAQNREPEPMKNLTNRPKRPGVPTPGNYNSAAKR

Broadly, the Kd is the concentration at which binding is half-saturated. Higher therefore signals weaker binding. Take AATTCTGGGTGTGTGGGTGTGTGGGTGTGTGGGTGTGG (structured_DNA) [4-G3]: the binding result (with Rap1 BRCT domain; in data set [1]) was “no binding” each time. Also, binding with Rap1-DBD was characterised by a dissociation constant (Kd) of 28 nM.

In the data set with Rap1-DBD, TTGGGTGGGTGGGTGGGTT (structured_DNA) [T-loops] gave a Kd of 45 nM.

In the data set with Rap1-DBD, TGGGTGTGTGGGTGTGTGGGTGTGTGGG (structured_DNA) [4-G3 no tail] yielded a dissociation constant (Kd) of 22 nM.
